Results taken from article PMC11754596.

Molecular target: p53 (UniProt P04637)
Assay: anti-Flag IP, anti-HA blot
Details: reference: HA-STAT1 wild type; sites Y701

binding against the reference: weaker
Substance: STAT1 (from UniProt P42224) HA-STAT1-Y701F
